# In the supplement of paper PMC7877785:
# ± gives the uncertainty stated by the source.
# Test: self-splicing fitness, log relative to wild type (ln ratio); higher = more splicing; Tetrahymena group I intron in knt gene, E. coli kanamycin selection, DiMSum; sequences stand for … in CUCUCU…GGAGGGAAAAGUUAUCAGGCAUGCACCUGGUAGCUAGUCUUUAAACCAAUAGAUUGCAUCGGUUUAAAAGGCAAGACCGUCAAAUUGCGGGAAAGGGGUCAACAGCCGUUCAGUACCAAGUCUCAGGGGAAACUUUGAGAUGGCCUUGCAAAGGGUAUGGUAAUAAGCUGACGGACAUGGUCCUAACCACGCAGCCAAGUCCUAAGUCAACAGAUCUUCUGUUGAUAUGGAUGCAGUUCACAGACUAAAUGUCGGUCGGGGAAGAUGUAUUCUUCUCAUAAGAUAUAGUCGGACCUCUCCUUAAUGGGAGCUAGCGGAUGAAGUGAUGCAACACUGGAGCCGCUGGGAACUAAUUUGUAUGCGAAAGUAUAUUGAUUAGUUUUGGAGUACUCGUGGUCG
# Outline: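 The eight P1ex-region nucleotides of an intron in the knt kanamycin-resistance gene on pET-22b(+) were all randomised and the library put into E. coli BL21(DE3). Six replicate transformations were grown overnight at 37°C or 30°C on LB agar with or without 25 μg/mL kanamycin, together with 100 μg/mL carbenicillin, 50 μM IPTG and 0.2% rhamnose. Colonies were pooled and amplicon-sequenced on an Illumina HiSeq 2500. Fitness from DiMSum is the error-weighted combination of wild-type-normalised replicate fold changes, kanamycin over none.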
Sequence,self-splicing fitness (ln) (30 °C),self-splicing fitness (ln) (37 °C)
AACAAGCAAUAUUACGAUCC,-1.13 ± 0.077,0.0585 ± 0.1
AGCAAGCAAUAUUACGAAGC,-3.28 ± 0.31,
UGUUAGCAAUAUUACGAAAG,-2.64 ± 0.14,-2.73 ± 0.25
CUGCAGCAAUAUUACGGAUG,-1.16 ± 0.061,-0.415 ± 0.081
GAGUAGCAAUAUUACGUUCC,-1.88 ± 0.46,
UGGGAGCAAUAUUACGCUUA,-2.55 ± 0.11,-0.767 ± 0.098
CUCAAGCAAUAUUACGCAUG,-4.22 ± 0.36,-1.65 ± 0.18
AGUUAGCAAUAUUACGAAUG,-2.33 ± 0.16,-1.56 ± 0.17
CCCCAGCAAUAUUACGCAUG,-3.67 ± 0.17,-2.75 ± 0.16
CGCCAGCAAUAUUACGGAGA,,-2.4 ± 0.24
CAGUAGCAAUAUUACGCUCC,,-1.31 ± 0.4
GUGUAGCAAUAUUACGAAAC,-3.2 ± 0.41,-1.89 ± 0.34
CCUUAGCAAUAUUACGGUUC,-2.91 ± 0.18,-2.72 ± 0.39
GGAGAGCAAUAUUACGAUCA,-1.04 ± 0.16,-1.73 ± 0.25
CGAUAGCAAUAUUACGGGAG,-2.86 ± 0.24,-2.39 ± 0.24
AUCAAGCAAUAUUACGUGUA,-2.39 ± 0.14,-1.42 ± 0.12
UCCGAGCAAUAUUACGUAUU,-1.95 ± 0.17,-2.92 ± 0.43
GCUGAGCAAUAUUACGAUAA,-3.51 ± 0.4,-3.27 ± 0.35
UAGAAGCAAUAUUACGGAGG,-3.39 ± 0.3,-0.889 ± 0.27
CCAGAGCAAUAUUACGGCGU,-4.2 ± 0.23,-3.29 ± 0.29
CGAGAGCAAUAUUACGUCAG,-2.31 ± 0.17,-2.54 ± 0.21
CUUUAGCAAUAUUACGGGAG,-2.89 ± 0.18,-2.57 ± 0.21
UCAAAGCAAUAUUACGAUGA,-0.6 ± 0.074,-0.51 ± 0.084
UGUCAGCAAUAUUACGCCUA,-0.234 ± 0.12,0.77 ± 0.16
GGAAAGCAAUAUUACGUCAG,-3.08 ± 0.38,-2.25 ± 0.27
UGACAGCAAUAUUACGGUCG,-3.56 ± 0.26,-1.58 ± 0.21

Sequence,self-splicing fitness (ln) (30 °C),self-splicing fitness (ln) (37 °C)
UGGGAGCAAUAUUACGUUCA,-0.406 ± 0.091,-0.266 ± 0.12
UCAAAGCAAUAUUACGAUAC,-3.34 ± 0.28,-2.82 ± 0.28
UGGAAGCAAUAUUACGUCAU,-2.99 ± 0.35,-3.01 ± 0.3
UAGGAGCAAUAUUACGAAAU,-2.12 ± 0.28,-2.31 ± 0.42
CUAGAGCAAUAUUACGCAAC,-1.32 ± 0.22,
CCGGAGCAAUAUUACGUUGC,-2.35 ± 0.32,
CUCCAGCAAUAUUACGAUUG,-1.53 ± 0.078,-0.899 ± 0.11
UGGCAGCAAUAUUACGGCCG,-3.49 ± 0.16,-1.77 ± 0.16
AUCAAGCAAUAUUACGCUUC,,-2.01 ± 0.46
GGAAAGCAAUAUUACGGCGC,-0.392 ± 0.16,0.131 ± 0.21
UCCCAGCAAUAUUACGGGAA,-3.21 ± 0.2,-1.83 ± 0.14
GGGGAGCAAUAUUACGUAUA,-1.69 ± 0.47,-2.35 ± 0.39
CCGAAGCAAUAUUACGGUUU,-4.44 ± 0.25,-2.23 ± 0.17
CCUCAGCAAUAUUACGGGGA,-3.03 ± 0.14,-2.1 ± 0.15
GUGGAGCAAUAUUACGAGUA,,-1.96 ± 0.44
CUAUAGCAAUAUUACGGGUA,-2.54 ± 0.19,-2.34 ± 0.21
CUCAAGCAAUAUUACGUAUU,-3.74 ± 0.19,-2.58 ± 0.21
UGGAAGCAAUAUUACGGACA,-1.03 ± 0.13,-0.0422 ± 0.11
AAAUAGCAAUAUUACGCACG,-1.59 ± 0.13,-0.271 ± 0.12
CUGAAGCAAUAUUACGAGGU,-3.28 ± 0.11,-2.41 ± 0.17
UGAUAGCAAUAUUACGGUGG,-2.08 ± 0.15,-1.53 ± 0.25
CCAGAGCAAUAUUACGCCCG,-2.01 ± 0.26,-1.17 ± 0.37
AUGCAGCAAUAUUACGAGAU,-3 ± 0.15,-1.54 ± 0.12
UGCAAGCAAUAUUACGGCUU,,-1.72 ± 0.28
GACAAGCAAUAUUACGAAUC,-2.49 ± 0.12,-2.53 ± 0.16
